From the supplement of paper PMC12636428

System: Saccharomyces cerevisiae
Test: transcriptional activation domain activity (GFP:mCherry ratio, weighted mean of sorted bins, harmonized to initial dataset scale) (arbitrary fluorescence ratio units); higher = stronger transcriptional activation
Settings: beta-estradiol 1 µM; induction time 4 h
How it was run: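 For this assay, yeast diploids with a GFP reporter carried barcoded protein tiles at URA3, each fused to an estradiol-inducible synthetic transcription factor. Induction was a 1:5 dilution into SC with 1 uM beta-estradiol for 4 hours at 30 °C, followed by sorting into 8 bins by GFP:mCherry ratio and barcode sequencing. Tiles under 50 reads were dropped, and activation activity was calculated as the read-weighted mean of bin median fluorescence, averaged across barcodes and linearly mapped onto the initial dataset scale.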

SHALQNRRASHASSAGSGSRRGSREETGEHHHKKHHHHKKHHHRRHSHGGGGG
transcriptional activation domain activity: 54500

SHDTFPLRPILVKLLCHAMLMKGVDPVSIIEKQPMTYGFVADILLPLVLDLPS
transcriptional activation domain activity: 62200

SHFLPLLLFLSLSFILFSFPFILPFSLISLFSYFFLPFLHISTLFHSYFSFLL
transcriptional activation domain activity: 47400

SHLDRRSNQFCRVQFCYKHLLLLWFFLLLFLAYPCQLLCIIIFPNLVSSLCRF
transcriptional activation domain activity: 31200

SHLEQMLWRICSLVIICAPMYLALSGKVFLIFSNSIGQLYILLCIRGPFLLYI
transcriptional activation domain activity: 69600

SHNTHTLSLSLPFPSYSSYSDLIFLFLFLLLFFFFLFLFLFLFLFLFLFSLPF
transcriptional activation domain activity: 34100

SHPDIMDAAVIGVEGEGTEVPRAYVVADRKKVNEKKVQEWVKGRTARNKRLRG
transcriptional activation domain activity: 25900

SHQEHVIAQLMNKVKSVSTTKPYVEYFQMPSKSVFITIVALCLYVILLKKTPS
transcriptional activation domain activity: 15500

SHQVLSCLAIFVFPRLAFITLSDNLLILSLRSMMSDFVFLMLLGAWCFLGFLY
transcriptional activation domain activity: 55200

SHREEAHEKASESESESGSEEQGSGGEKSEPKPEAEADGAADEASPGEEEGSQ
transcriptional activation domain activity: 24600

SHRKGIERKKRLREEERRREAKENGIVLEREKRADKGKERGRRDRGVDAPGVG
transcriptional activation domain activity: 26800

SHSGVSRSGKRDASRSTSASGLGRNNGNASASGNGSRKGKRRSEGAGGRGKRV
transcriptional activation domain activity: 13500

SHTAEPSDADGEGTRATRRAKTKSKSTGKSREAGKRSNGARKGGGRADSGGKD
transcriptional activation domain activity: 46800

SHYALCVNMHAYWHSNPHFGSEHRWLGFPPFYHVFGLSYILLLAPCLGATVCV
transcriptional activation domain activity: 61100

SIAISPESAVANLGTDTGLPSDVLDTVSKIGNSPNVFDDDLFSNLLWFDQNFA
transcriptional activation domain activity: 142000

SICCALQDWYDYFSTLSYQDTLKSNIWYSLAETEYYWLHLLLFLPHLKRYLTR
transcriptional activation domain activity: 47600

SICRLGVGLSITGYRLGSMVLLRHDLRLIVTVFSMHLKYFVSFARPSMKILLR
transcriptional activation domain activity: 67300

SIDSAAHHDNSTIPLDFMPRDALHGFDWSEEDDMSDGLPFLKTDPNNNGFFGD
transcriptional activation domain activity: 69800

SIEDMTGWKLLHGDVFRAPPNGNILAPLVGSGCQLVYMATGLLMLSCLGILNP
transcriptional activation domain activity: 41600

SIFVVFFISFVPLVVQELTERGFWRAATRLAKHFGSLSFLFEVFVCQVYANSL
transcriptional activation domain activity: 65500

SIHEPVDFLEPQPFLDFFVVFCFRLLFLWLLIFIFLFRLFIVFSLLFLFLHHI
transcriptional activation domain activity: 28600

SIHLPKKITICTYIGTYYAIGAAWGFVLMNYFLTGWYFGLYDKYYIDSFGIYV
transcriptional activation domain activity: 76000

SIILLCLPAAYFLFNIFSVGLLSLGFSHRLIPGIPRLRRYIFVPGVFLYIFAR
transcriptional activation domain activity: 54300

SIKVTRYLLNLAHCTNDQWFYYIVFFFAELVVYTIMIVAIGSILFQWRFFCLV
transcriptional activation domain activity: 52100

SILASLGFIVCGVYIWVTSHWNPQHVRDGLPLLYFSGHLRCKIYSIVLNLFVT
transcriptional activation domain activity: 69900

SILLMQHNLYHFIHFFKKIRQVIEKGEYPSFKQELIQNLGQTGWWKFLNAKSL
transcriptional activation domain activity: 59500

SIMHALRQFCTEMRATQFQDCRLRTVQLLLRLLPSANLSLFVYLLAFLSQIVQ
transcriptional activation domain activity: 36200

SIPPPPPPPAPPGPSRGGPPPPPPPPPPGGRGGAPPPPPPPPGGRAPPAPPAP
transcriptional activation domain activity: 22100

SIRVILLNLGLSNGLETIPYGLISIIYQSKYQSFAYTLLFFSNLFTYSLWYVV
transcriptional activation domain activity: 61200

SISFIGHRMMFWFFACVGLACLFMAGALAVMCLHYLLMIFLFYLRCYPPYLGS
transcriptional activation domain activity: 31900

SISQFCWIWYTRPRPLQDICYYDSASRGPWGCFLLLLRLRFIRFACIGAIITL
transcriptional activation domain activity: 78600

SITILVNIFLLHGSVKFIQKCLQYIGYIAEEVRSSLPLHKCLYWPLLIMLRLL
transcriptional activation domain activity: 45200

SIWSFSTLLSILARDHVFYFFIKQNVDTFYIWLLETTAIYYIFMLGPIMFLSI
transcriptional activation domain activity: 60600

SIYCRLIQKSLFLMMVPIVQMPPLLLLLTCYFLRIFLSFFTRMYFVCFVLIFL
transcriptional activation domain activity: 62400

SIYLCTHGTFFVVVTPIYFDYPCCGNPLVLFSSTLGMIIHFILFFFCLPCFFL
transcriptional activation domain activity: 63100

SKADTEDGEEAVDDTATEEKPEAKAEEVTEETTTEKEAEAAAESAAAEKLRRD
transcriptional activation domain activity: 25700

SKAGLILVIRRQGNEIICGAYRNLGFKMLWKLYVKSLFDVMGQWHEVYATSKP
transcriptional activation domain activity: 64000

SKARSRGQSSRTRKRGRQESSGESSSSEEEDSYRGRQGRSKAGKKGKDKGKGK
transcriptional activation domain activity: 27200

SKDARETNPEGEEIEKQRRKKRSREEKEDNERSSRKRRSSRSRSPRRQKEKAN
transcriptional activation domain activity: 30900

SKDDRSISSEDKASSDKLKKSSDRADRKRKDDDDSKRSKADRKSKRDEERSSD
transcriptional activation domain activity: 29600

SKDEEGEGEGEGDEEKVEEGGDEDGEQVEGEDGAKSAAATASAKKFSKREKEM
transcriptional activation domain activity: 48900

SKDLTRLTLISIMLEKCEGDYSAACVEQYLTVLLKFAVLAVVSDQTLHLSILA
transcriptional activation domain activity: 52000

SKEKLSAVENSHAIKLEIILEGIGSIMLSHPNDMQLLSRVVRLLVRVAIQFRR
transcriptional activation domain activity: 56500

SKEREQRERSVEQEQPRRKNGRRRRDKRDEQRRRNRRRSSSSRRESRSSRRES
transcriptional activation domain activity: 44600

SKFASSGLFGVDVYSVWKRATEKISDGNNTTDSNQKHHPYHNHPSNDSGNEKN
transcriptional activation domain activity: 41500

SKGAKKDAGPRGAVRRAKKKGGVEPEKKKREKDGGSREKSRSSSKKEKGGFER
transcriptional activation domain activity: 15200

SKGNSINTFLEQVTFQVVPMLIDLCVAIGYFLVAFDAYYALVVAIVTFCYLYV
transcriptional activation domain activity: 44100

SKHATEAEKKKEEEKKSKSKEAPAKKEKKEKVKEEKPKEKVVAKIPEPAPSEP
transcriptional activation domain activity: 20200

SKHEDQKSRRSRDEKDRGSRSSRHREDGHRSHRDRSRSRDRHHRSSKHHERRR
transcriptional activation domain activity: 27700

SKHRRRHRSSSRERHRHRERDGEPSSSRHRSRRDRSRSKDRSKKEESHRSHRS
transcriptional activation domain activity: 24500

SKHSKKRSSKRARSSSSSSSSSSSEEDDRRRRKRRKEKKRSHKKSHTRRRSRS
transcriptional activation domain activity: 32700

SKIAWMILNIKYITQILTTIMRMHGQIEKNPLRPEVVPQFVGICRWIMQFMIY
transcriptional activation domain activity: 55700

SKKKGRKAQKTGSADPAPNESKDRAGATEEAAEGAADEEDEQDEDEDEDEEGE
transcriptional activation domain activity: 37600

SKKRKIKGGKSRSSSSKSDSSSSSSSSEDGEEKDLSKGVGKRGAKRAKSDDSS
transcriptional activation domain activity: 19000

SKMLTEFKQKLRLDYFMLLDLRLWKDMRMCLRKMFISTLVANLSYKRILGVRF
transcriptional activation domain activity: 73200

SKNDSASDEEEEGDDLPSAYCTVILNHQKVFKTRTKPKNSKPFFNAGCERFIP
transcriptional activation domain activity: 57400

SKPSARKASSRSVASKEQAAVAAKKVASVEEQKKKRGRPRKLPLSDATNEVAS
transcriptional activation domain activity: 42100

SKPSSNGRSDCSKHSTGKDASNKKNNRGKSKKAKKKTAAAKANTTDNESDSSD
transcriptional activation domain activity: 33600

SKQAGVGGEDEGEEDVPEDFGHSDNIRKKLLEVLGRDRRDRVLSSLYIVRADG
transcriptional activation domain activity: 43800

SKRAQDPLRIWDAMIDVHVHLPAGAQKKDGPSAGVAMVIVCAIVSLLTGKCVP
transcriptional activation domain activity: 46600

SKRREIRKTKEARREGSERRDGEADSEEKAREGKGSKRRRRGTGRRAEEAAKG
transcriptional activation domain activity: 27400

SKSESTHSSAKKADSGKRSGRSKPATSDGGPKGFDSKPSGEKSKKESSRSTKE
transcriptional activation domain activity: 36600

SKSEVSGTGRKAYAQKGRGKARVHSLRAPQFRGGGRAFPVKPRDFSSEIQIKV
transcriptional activation domain activity: 61100

SKSRSSSSSSSSSSSSSSSSSSSESEKSHSKHKSKSKSKSKARKSKSKSKHRG
transcriptional activation domain activity: 18100

SKTAGPSSNSPSQTGKDDKAAASSSTSAGGAPAATGRVIAGLAAGVAMGLAAA
transcriptional activation domain activity: 37700

SKVYLLKHFEGYIMGKLYGDYEYTFLDLQRTKGMHFVQKYLRMKHVIVFKLSH
transcriptional activation domain activity: 58700

SKWEVANKKTRDEASKGGGGKGGGGGKGGKAGEGGKEKRSEKKAAAKEGGKKK
transcriptional activation domain activity: 39600

SKWTTVDADDDLMRTFIRAYFLYEYDWFTFFHKDYFLDDMLAGSSTFCSPLLV
transcriptional activation domain activity: 42000

SKWWLLGDSFEADILTFITLYQFVNAGFVFNYGYIFRKSWYRNYLLICIWALF
transcriptional activation domain activity: 67200

SLADEKERGLLTGDDNRDEYLGRNLRGMIHEFRWQTLVLLKCCLLQPKMLFFS
transcriptional activation domain activity: 58100

SLAFPLFIIARYFPLGLIAIDFIQLAAPTHSQVTCTVLFRLYILLLMIITFST
transcriptional activation domain activity: 40900

SLAFQVDFTRKYGMVGFFLFWMMSQEAHHDPLLLLLHSPLYFPIFLLFWVILN
transcriptional activation domain activity: 68800

SLAVRTGAELGQDASMDDAEARNMDGNLDVDLAELSLGQRLTAVNGTEGAGRS
transcriptional activation domain activity: 19700

SLDALHIIFVAHSLYWYLVLNYITPLALLSIVWSFHLQIAINIMLIASVQTAY
transcriptional activation domain activity: 37300

SLDHTSLWIRRSVLSFSIEQIKKVFFQLFSTWYIFIFQLPYFPEWLWKNKTYP
transcriptional activation domain activity: 49100

SLDLEILEELEKLISAQEFSRNFTEDVDESLQSEIDLMNYDNEALNQLMAIDL
transcriptional activation domain activity: 137000

SLEAWVPSVKLMMHDRSGLSRDGRTAVYHLIALTLRYSEIYVEQILVLWKGLV
transcriptional activation domain activity: 44200

SLFFSVWALSQTWCVGHRRCSPMHLGTYYDAFIFLGISGMWKWSLLLIVIYRF
transcriptional activation domain activity: 34000

SLFLLVVSINDVQTINFFYFVTDYGSWLEIGTSISHFCIAELFIIFTICLFWL
transcriptional activation domain activity: 37800

SLFLSFFIFPLFLFFYFFSFFFDLFIVCMVHLFLGKDLYLFGYQKVLFCFCLC
transcriptional activation domain activity: 65700

SLGCLVKQAEYQVDGRSIGMDGYLFFFFFACCCFLYTSGLSFLYLFWFFFLVF
transcriptional activation domain activity: 22900

SLGCTLVYVAHISYLSLLPRFDYSYNMAFNLTLGLTHNFLWLLYSLPSFCAIP
transcriptional activation domain activity: 52300

SLGMGLDYWARLSGLYLQKLGWGYRVWCFSFWMGLSLGFLLLFSSLGAYILFL
transcriptional activation domain activity: 55400
